Measured values reported in publication PMC4551919 (Nucleic Acids Research, 2015).

What was measured:
Assay in all cases: MST
[1] = target: SMG-1, full length, SBP-tagged (human, UniProt Q96Q15 1-3661)
SMG-1–9 complex = SMG-1–9 complex (human | , UniProt Q96Q15;Q9H0W8)
SMG-1–8–9 complex = SMG-1–8–9 complex (human | , UniProt Q96Q15;Q8ND04;Q9H0W8)
SMG-1ΔC-8–9 complex = SMG-1ΔC-8–9 complex (human | , UniProt Q96Q15;Q8ND04;Q9H0W8, deleted from the residues 2442 to 3591)

B1: UPF1, full length, fluorescently labeled with NT-547 (natural protein)
chain: MSVEAYGPSSQTLTFLDTEEAELLGADTQGSEFEFTDFTLPSQTQTPPGGPGGPGGGGAGGPGGAGAGAAAGQLDAQVGPEGILQNGAVDDSVAKTSQLLAELNFEEDEEDTYYTKDLPIHACSYCGIHDPACVVYCNTSKKWFCNGRGNTSGSHIVNHLVRAKCKEVTLHKDGPLGETVLECYNCGCRNVFLLGFIPAKADSVVVLLCRQPCASQSSLKDINWDSSQWQPLIQDRCFLSWLVKIPSEQEQLRARQITAQQINKLEELWKENPSATLEDLEKPGVDEEPQHVLLRYEDAYQYQNIFGPLVKLEADYDKKLKESQTQDNITVRWDLGLNKKRIAYFTLPKTDSGNEDLVIIWLRDMRLMQGDEICLRYKGDLAPLWKGIGHVIKVPDNYGDEIAIELRSSVGAPVEVTHNFQVDFVWKSTSFDRMQSALKTFAVDETSVSGYIYHKLLGHEVEDVIIKCQLPKRFTAQGLPDLNHSQVYAVKTVLQRPLSLIQGPPGTGKTVTSATIVYHLARQGNGPVLVCAPSNIAVDQLTEKIHQTGLKVVRLCAKSREAIDSPVSFLALHNQIRNMDSMPELQKLQQLKDETGELSSADEKRYRALKRTAERELLMNADVICCTCVGAGDPRLAKMQFRSILIDESTQATEPECMVPVVLGAKQLILVGDHCQLGPVVMCKKAAKAGLSQSLFERLVVLGIRPIRLQVQYRMHPALSAFPSNIFYEGSLQNGVTAADRVKKGFDFQWPQPDKPMFFYVTQGQEEIASSGTSYLNRTEAANVEKITTKLLKAGAKPDQIGIITPYEGQRSYLVQYMQFSGSLHTKLYQEVEIASVDAFQGREKDFIILSCVRANEHQGIGFLNDPRRLNVALTRARYGVIIVGNPKALSKQPLWNHLLNYYKEQKVLVEGPLNNLRESLMQFSKPRKLVNTINPGARFMTTAMYDAREAIIPGSVYDRSSQGRPSSMYFQTHDQIGMISAGPSHVAAMNIPIPFNLVMPPMPPPGYFGQANGPAAGRGTPKGKTGRGGRQKNRFGLPGPSQTNLPNSQASQDVASQPFSQGALTQGYISMSQPSQMSQPGLSQPELSQDSYLGDEFKSQIDVALSQDSTYQGERAYQHGGVTGLSQY
modifications: NT-547 dye on amines, on average one fluorescent moiety per UPF1 molecule
[1]
  Kd: 75 nM
SMG-1–9 complex
  Kd: 56 nM
SMG-1–8–9 complex
  Kd: 38 nM
SMG-1ΔC-8–9 complex
  Kd: 221 nM
